In patent US20250262210A1 (TRUSTEES OF COLUMBIA UNIVERSITY IN THE CITY OF NEW YORK, published 2025):

Tests used:
Experiment in all cases: IP/MS, LZTR1 R810W-FLAG, U87
EPG5 = EPG5 (human, UniProt Q9HCE0 1-2579, limits assumed)
Outline: (§1)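 Extracted peptides in 3% acetonitrile/0.1% formic acid ran on a 50 cm C18 column into an Orbitrap Fusion, with MaxQuant identification and spectral counting.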

ANKRD52 = biological target: T1, ANKRD52 (human, UniProt Q8NB46 1-1076)
T1 sequence (looked up): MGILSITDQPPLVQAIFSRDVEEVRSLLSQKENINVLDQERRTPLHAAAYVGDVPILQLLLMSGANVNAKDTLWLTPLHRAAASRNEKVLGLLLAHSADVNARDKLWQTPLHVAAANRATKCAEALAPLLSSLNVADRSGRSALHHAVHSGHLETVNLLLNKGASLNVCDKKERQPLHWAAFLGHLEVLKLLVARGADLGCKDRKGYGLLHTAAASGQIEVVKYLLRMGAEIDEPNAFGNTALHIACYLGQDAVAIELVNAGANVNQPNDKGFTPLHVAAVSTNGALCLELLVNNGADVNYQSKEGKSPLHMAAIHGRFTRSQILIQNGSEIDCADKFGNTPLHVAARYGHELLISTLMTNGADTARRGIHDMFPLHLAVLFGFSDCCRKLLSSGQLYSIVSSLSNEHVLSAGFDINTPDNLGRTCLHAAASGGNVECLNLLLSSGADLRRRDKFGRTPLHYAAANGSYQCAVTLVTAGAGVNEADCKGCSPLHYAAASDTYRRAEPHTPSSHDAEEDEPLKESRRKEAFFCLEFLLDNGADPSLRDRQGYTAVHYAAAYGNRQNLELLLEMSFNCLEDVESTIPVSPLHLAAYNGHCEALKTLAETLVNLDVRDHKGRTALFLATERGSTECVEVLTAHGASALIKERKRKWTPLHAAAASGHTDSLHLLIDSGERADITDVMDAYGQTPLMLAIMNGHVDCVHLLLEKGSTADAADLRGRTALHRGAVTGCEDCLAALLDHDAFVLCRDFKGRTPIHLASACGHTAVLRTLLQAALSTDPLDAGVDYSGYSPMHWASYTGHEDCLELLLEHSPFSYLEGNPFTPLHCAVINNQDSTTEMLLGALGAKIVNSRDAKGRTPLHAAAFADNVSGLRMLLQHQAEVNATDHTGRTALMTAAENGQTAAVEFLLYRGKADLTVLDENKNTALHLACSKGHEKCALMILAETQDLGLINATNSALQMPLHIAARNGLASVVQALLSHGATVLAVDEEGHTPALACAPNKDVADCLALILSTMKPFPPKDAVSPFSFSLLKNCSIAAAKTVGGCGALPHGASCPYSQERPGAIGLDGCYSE
Outline: as §1

USP4 = biological target: T2, USP4 (human, UniProt Q13107 1-963, limits assumed)
T2 sequence (looked up): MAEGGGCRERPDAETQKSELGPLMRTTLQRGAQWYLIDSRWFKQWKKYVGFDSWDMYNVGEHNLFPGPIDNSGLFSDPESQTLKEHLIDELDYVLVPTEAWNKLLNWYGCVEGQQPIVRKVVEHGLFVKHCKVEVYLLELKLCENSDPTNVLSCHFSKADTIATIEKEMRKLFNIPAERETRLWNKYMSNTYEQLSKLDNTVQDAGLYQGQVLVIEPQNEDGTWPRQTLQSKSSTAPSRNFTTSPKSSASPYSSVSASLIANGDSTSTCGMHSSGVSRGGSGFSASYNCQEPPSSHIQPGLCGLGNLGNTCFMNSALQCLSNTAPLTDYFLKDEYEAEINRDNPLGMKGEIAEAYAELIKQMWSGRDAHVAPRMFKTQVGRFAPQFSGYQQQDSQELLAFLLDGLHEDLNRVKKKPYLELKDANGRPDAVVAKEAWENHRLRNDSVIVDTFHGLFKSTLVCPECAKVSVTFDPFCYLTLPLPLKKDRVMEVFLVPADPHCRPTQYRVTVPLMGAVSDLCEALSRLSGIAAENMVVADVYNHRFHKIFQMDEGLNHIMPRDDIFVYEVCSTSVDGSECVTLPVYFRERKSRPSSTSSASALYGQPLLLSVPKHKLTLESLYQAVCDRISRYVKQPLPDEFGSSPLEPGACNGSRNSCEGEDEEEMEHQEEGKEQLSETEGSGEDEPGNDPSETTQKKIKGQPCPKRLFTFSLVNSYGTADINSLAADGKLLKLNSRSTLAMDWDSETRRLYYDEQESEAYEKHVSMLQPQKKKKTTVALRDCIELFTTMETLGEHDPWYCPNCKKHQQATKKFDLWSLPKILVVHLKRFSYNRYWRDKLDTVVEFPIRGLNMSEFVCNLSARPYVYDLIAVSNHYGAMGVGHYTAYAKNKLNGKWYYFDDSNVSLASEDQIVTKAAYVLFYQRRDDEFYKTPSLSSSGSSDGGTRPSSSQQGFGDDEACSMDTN
Outline: as §1

Measured: binding result

Sequence of EPG5 (Q9HCE0 whole entry, the tested form may be a part): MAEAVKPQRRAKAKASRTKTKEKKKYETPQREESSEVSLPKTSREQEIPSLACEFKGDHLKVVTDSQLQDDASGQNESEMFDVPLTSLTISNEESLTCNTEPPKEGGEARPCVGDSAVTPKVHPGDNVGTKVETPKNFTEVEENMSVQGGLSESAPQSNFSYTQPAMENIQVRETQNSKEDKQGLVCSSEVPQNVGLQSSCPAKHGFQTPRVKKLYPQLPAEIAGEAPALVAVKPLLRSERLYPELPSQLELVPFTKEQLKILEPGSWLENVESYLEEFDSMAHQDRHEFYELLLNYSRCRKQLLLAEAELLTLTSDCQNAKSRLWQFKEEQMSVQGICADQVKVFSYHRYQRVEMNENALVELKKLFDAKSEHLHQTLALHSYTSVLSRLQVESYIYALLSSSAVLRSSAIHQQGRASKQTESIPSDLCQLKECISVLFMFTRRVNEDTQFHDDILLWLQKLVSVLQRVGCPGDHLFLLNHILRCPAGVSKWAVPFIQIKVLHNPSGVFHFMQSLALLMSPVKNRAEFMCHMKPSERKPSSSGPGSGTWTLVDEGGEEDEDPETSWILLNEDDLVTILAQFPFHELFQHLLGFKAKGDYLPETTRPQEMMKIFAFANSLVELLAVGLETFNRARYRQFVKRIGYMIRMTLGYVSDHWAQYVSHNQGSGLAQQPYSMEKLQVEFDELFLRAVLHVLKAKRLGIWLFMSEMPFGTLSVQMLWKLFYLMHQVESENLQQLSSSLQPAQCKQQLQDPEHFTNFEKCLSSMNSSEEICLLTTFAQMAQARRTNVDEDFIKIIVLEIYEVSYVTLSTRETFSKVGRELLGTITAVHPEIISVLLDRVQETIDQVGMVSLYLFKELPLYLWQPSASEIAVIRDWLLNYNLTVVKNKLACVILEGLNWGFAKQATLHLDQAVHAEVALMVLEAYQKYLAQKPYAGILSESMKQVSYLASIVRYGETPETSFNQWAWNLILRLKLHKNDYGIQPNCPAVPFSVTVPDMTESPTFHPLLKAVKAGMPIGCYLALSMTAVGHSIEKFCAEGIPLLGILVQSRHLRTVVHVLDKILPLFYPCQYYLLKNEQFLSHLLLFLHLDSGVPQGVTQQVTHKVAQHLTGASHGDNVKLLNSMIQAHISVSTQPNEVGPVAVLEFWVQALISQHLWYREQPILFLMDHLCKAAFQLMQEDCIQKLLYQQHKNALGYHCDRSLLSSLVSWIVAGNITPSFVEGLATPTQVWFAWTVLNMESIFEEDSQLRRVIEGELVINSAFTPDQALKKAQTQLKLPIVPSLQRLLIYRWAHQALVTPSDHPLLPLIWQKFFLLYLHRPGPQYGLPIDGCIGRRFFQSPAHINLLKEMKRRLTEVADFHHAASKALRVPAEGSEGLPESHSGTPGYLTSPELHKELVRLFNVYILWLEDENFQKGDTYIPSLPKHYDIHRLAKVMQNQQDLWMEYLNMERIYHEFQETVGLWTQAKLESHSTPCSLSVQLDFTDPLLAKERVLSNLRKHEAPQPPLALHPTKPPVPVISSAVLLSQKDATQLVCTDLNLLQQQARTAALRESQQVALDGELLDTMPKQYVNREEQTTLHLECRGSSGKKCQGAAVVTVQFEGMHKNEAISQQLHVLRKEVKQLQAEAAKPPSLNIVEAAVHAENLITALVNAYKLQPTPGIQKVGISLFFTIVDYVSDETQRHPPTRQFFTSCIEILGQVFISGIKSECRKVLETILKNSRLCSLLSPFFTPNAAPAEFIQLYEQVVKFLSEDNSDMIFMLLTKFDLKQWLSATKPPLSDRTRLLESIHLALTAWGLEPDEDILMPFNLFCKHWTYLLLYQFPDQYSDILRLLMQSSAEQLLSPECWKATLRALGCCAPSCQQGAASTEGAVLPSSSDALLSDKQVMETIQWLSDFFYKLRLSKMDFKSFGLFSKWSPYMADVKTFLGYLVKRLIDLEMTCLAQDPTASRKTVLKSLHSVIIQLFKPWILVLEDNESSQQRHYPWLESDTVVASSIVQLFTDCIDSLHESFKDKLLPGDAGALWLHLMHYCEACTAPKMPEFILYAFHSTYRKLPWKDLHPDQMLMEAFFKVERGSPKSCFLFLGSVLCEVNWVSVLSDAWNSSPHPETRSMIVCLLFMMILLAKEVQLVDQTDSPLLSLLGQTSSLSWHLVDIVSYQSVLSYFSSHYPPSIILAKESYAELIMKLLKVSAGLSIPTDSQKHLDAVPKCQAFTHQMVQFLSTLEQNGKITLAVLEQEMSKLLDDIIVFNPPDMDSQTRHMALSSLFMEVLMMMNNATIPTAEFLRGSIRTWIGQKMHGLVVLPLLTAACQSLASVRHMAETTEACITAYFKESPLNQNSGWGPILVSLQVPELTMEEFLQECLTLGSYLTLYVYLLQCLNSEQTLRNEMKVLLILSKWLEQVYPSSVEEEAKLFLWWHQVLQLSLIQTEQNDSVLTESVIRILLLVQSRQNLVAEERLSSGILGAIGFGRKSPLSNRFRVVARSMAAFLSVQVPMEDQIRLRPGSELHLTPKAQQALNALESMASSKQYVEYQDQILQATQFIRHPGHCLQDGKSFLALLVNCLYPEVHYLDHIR

B1: LZTR1 R810W-FLAG (other, human, UniProt Q8N653 1-840, looked up)
chain: MAGPGSTGGQIGAAALAGGARSKVAPSVDFDHSCSDSVEYLTLNFGPFETVHRWRRLPPCDEFVGARRSKHTVVAYKDAIYVFGGDNGKTMLNDLLRFDVKDCSWCRAFTTGTPPAPRYHHSAVVYGSSMFVFGGYTGDIYSNSNLKNKNDLFEYKFATGQWTEWKIEGRLPVARSAHGATVYSDKLWIFAGYDGNARLNDMWTIGLQDRELTCWEEVAQSGEIPPSCCNFPVAVCRDKMFVFSGQSGAKITNNLFQFEFKDKTWTRIPTEHLLRGSPPPPQRRYGHTMVAFDRHLYVFGGAADNTLPNELHCYDVDFQTWEVVQPSSDSEVGGAEVPERACASEEVPTLTYEERVGFKKSRDVFGLDFGTTSAKQPTQPASELPSGRLFHAAAVISDAMYIFGGTVDNNIRSGEMYRFQFSCYPKCTLHEDYGRLWESRQFCDVEFVLGEKEECVQGHVAIVTARSRWLRRKITQARERLAQKLEQEAAPVPREAPGVAAGGARPPLLHVAIREAEARPFEVLMQFLYTDKIKYPRKGHVEDVLLIMDVYKLALSFQLCRLEQLCRQYIEASVDLQNVLVVCESAARLQLSQLKEHCLNFVVKESHFNQVIMMKEFERLSSPLIVEIVRRKQQPPPRTPLDQPVDIGTSLIQDMKAYLEGAGAEFCDITLLLDGHPRPAHKAILAARSSYFEAMFRSFMPEDGQVNISIGEMVPSRQAFESMLRYIYYGEVNMPPEDSLYLFAAPYYYGFYNNRLQAYCKQNLEMNVTVQNVLQILEAADKTQALDMKRHCLHIIVHQFTKVSKLPTLWSLSQQLLLDIIDSLASHISDKQCAELGADI
notes: Stably expressed in U87 cells by lentivirus; also called LZTR1-FLAG-R810W; LZTR1 RW; not shown: FLAG tag
binds: EPG5 | ANKRD52 | USP4
